The results in this text go back to paper PMC6200646 (Journal of immunology (Baltimore, Md. : 1950), 2018).

Data set [1] deals with T1, human CD25, captured for SPR (human, UniProt P01589 22-240).
T1 sequence (looked up): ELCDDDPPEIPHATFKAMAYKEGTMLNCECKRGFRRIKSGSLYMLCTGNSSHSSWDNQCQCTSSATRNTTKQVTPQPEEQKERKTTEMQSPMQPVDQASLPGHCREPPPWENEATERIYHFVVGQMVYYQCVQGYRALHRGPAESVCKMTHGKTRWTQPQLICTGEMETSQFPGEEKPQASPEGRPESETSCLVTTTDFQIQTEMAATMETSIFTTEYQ
Description: SPR. (In general: SPR reads the build-up and loss of mass on a sensor chip optically.)

Data set [2] concerns the molecule itself. The experiment in a line: SEC-MALS.
The target of data set [3] is T2, mCD122(27-241)-hFc-D/mCD132(23-263)-hFc-K heterodimeric Fc fusion (mouse, UniProt P16297 27-241; P34902 23-263).
T2 sequence (looked up) 1: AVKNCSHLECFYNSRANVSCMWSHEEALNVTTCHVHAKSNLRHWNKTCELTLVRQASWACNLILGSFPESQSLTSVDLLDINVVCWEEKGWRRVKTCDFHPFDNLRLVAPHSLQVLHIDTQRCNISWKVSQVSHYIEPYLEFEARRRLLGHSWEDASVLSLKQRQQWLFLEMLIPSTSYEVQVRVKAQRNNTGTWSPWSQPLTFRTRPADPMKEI
T2 sequence (looked up) 2: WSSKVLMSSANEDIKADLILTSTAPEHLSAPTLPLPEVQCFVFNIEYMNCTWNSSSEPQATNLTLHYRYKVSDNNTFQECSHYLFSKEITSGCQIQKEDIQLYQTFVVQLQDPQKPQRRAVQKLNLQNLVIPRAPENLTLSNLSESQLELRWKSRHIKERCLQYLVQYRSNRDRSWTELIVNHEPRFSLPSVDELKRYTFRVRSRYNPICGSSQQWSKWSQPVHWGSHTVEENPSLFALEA
Description: SPR.

Data set [4] has as its target T3, biot-mCD25(22-186)-BioP-TVMV-His, His cleaved (mouse, UniProt P01590 22-186, biotin).
T3 sequence (looked up): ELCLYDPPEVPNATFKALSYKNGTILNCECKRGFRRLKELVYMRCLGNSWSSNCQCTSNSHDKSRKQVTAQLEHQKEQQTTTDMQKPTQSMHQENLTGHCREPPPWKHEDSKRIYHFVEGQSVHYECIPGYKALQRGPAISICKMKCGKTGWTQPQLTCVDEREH
Description: SPR.

B1: mouse IL-2 (ligand, UniProt P04351 21-169, looked up)
chain: APTSSSTSSSTAEAQQQQQQQQQQQQHLEQLLMDLQELLSRMENYRNLKLPRMLTFKFYLPKQATELKDLQCLEDELGPLRHVLDLTQSKSFQLEDAENFISNIRVTVVKLKGSDNTFECQFDDESATVVDFLRRWIAFCQSIISTSPQ
Turning to B1, in data set [1], the “fold weaker Kd than mIL-2 to mCD25” value was roughly 234 fold.

B2: mIL-2/mCD25 fusion protein with the 12 amino acid (G3S)3 linker (other, mouse)
chain: APTSSSTSSSTAEAQQQQQQQQQQQQHLEQLLMDLQELLSRMENYRNLKLPRMLTFKFYLPKQATELKDLQCLEDELGPLRHVLDLTQSKSFQLEDAENFISNIRVTVVKLKGSDNTFECQFDDESATVVDFLRRWIAFCQSIISTSPQGGGSGGGSGGGSELCLYDPPEVPNATFKALSYKNGTILNCECKRGFRRLKELVYMRCLGNSWSSNCQCTSNSHDKSRKQVTAQLEHQKEQQTTTDMQKPTQSMHQENLTGHCREPPPWKHEDSKRIYHFVEGQSVHYECIPGYKALQRGPAISICKMKCGKTGWTQPQLTCVDEREHHRFLASEESQGSRNSSPESETSCPITTTDFPQPTETTAMTETFVLTMEYKGG
modifications: glycosylated (N- and O-linked carbohydrate)
One may read the stoichiometry N as a count of units in the complex or per binding partner. B2: the “stoichiometry N” value in data set [2] stood at 2. In data set [3], the “fold weaker apparent Kd than mIL-2 to mIL-2Rβ/γc” value was roughly 680 fold. For the same molecule, in data set [4], the “fold weaker apparent Kd than mIL-2 to mCD25” value was roughly 1000 fold.

B3: mIL-2/hCD25 mouse/human chimeric fusion protein with the 12 amino acid (G3S)3 linker (other, mouse | human)
chain: APTSSSTSSSTAEAQQQQQQQQQQQQHLEQLLMDLQELLSRMENYRNLKLPRMLTFKFYLPKQATELKDLQCLEDELGPLRHVLDLTQSKSFQLEDAENFISNIRVTVVKLKGSDNTFECQFDDESATVVDFLRRWIAFCQSIISTSPQGGGSGGGSGGGSELCDDDPPEIPHATFKAMAYKEGTMLNCECKRGFRRIKSGSLYMLCTGNSSHSSWDNQCQCTSSATRNTTKQVTPQPEEQKERKTTEMQSPMQPVDQASLPGHCREPPPWENEATERIYHFVVGQMVYYQCVQGYRALHRGPAESVCKMTHGKTRWTQPQLICTGEMETSQFPGEEKPQASPEGRPESETSCLVTTTDFQIQTEMAATMETSIFTTEYQGG
modifications: glycosylated
On to B3, for which, in data set [2], the “stoichiometry N” value is 2. Moreover, the “fold weaker binding than mIL-2 to mIL-2Rβ/γc” value in data set [3] stood at 45 fold. Also, in data set [4], the “fold stronger affinity than mIL-2/mCD25 to mCD25” value worked out at 10 fold.
